Source: US20250011456A1 (VILLANELLE LIFE SCIENCE, published 2025)
Positions count from the first letter of the chain named.

T1: Recombinant Human CD14/His Protein (B294801) (human, UniProt P08571 20-352, limits assumed)
T1 construct: Bought His-tagged recombinant human CD14; also called recombinant human CD14 antigen; CD14 antigen; not shown: histidine tag
T1 sequence (looked up): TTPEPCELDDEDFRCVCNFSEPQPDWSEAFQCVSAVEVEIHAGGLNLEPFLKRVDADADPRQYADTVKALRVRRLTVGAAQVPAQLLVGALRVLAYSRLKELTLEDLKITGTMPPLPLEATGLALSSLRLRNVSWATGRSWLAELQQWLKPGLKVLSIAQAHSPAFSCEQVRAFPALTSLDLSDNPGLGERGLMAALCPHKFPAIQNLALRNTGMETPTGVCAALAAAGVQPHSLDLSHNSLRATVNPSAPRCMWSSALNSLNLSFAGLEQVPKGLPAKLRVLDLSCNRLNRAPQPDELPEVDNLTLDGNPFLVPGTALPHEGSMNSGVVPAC

B1: Antibody No. D6DD3D001 (HU1127-mVH/mVL) (antibody, human IgG1, kappa, V domains shown)
VH: DVQLQQSGPGLVKPSQSLSLTCTVTGYSITSDSAWNWIRQFPGNRLEWMGYISYSGSTSYNPSLKSRISITRDTSKNQFFLQLNSVTTEDTATYYCVRGLRFAYWGQGTLVTVSS
VL: DIVLTQSPASLAVSLGQRATISCRASESVDSYVNSFLHWYQQKPGQPPKLLIYRASNLQSGIPARFSGSGSRTDFTLTINPVEADDVATYYCQQSNEDPYTFGGGTKLEIKR
notes: Mouse variable domains of Atibuclimab on human IgG1 constant regions (hFc, 146 kDa); also called Original IgG1 antibody; mouse antibody
B2: Antibody No. D6DD3D008 (HU1127-hVH2/hVL2) (antibody, human IgG1, kappa)
heavy: not shown
light: DIVLTQSPDSLAVSLGERATINCRASESVDSYVNSFLHWYQQKPGQPPKLLIYRASNLQSGVPDRFSGSGSRTDFTLTISSLQAEDVAVYYCQQSNEDPYTFGQGTKLEIKRTVAAPSVFIFPPSDEQLKSGTASVVCLLNNFYPREAKVQWKVDNALQSGNSQESVTEQDSKDSTYSLSSTLTLSKADYEKHKVYACEVTHQGLSSPVTKSFNRGEC
notes: Humanized IgG1 (hFc)
B3: Antibody No. D6DD3D010 (HU1127-hVH4/hVL2) (antibody, human IgG1, kappa)
heavy: not shown
light: B2 light
notes: Humanized IgG1 (hFc)
B4: Antibody No. D6DD3D011 (HU1127-hVH5/hVL2) (antibody, human IgG1, kappa)
heavy: not shown
light: B2 light
notes: Humanized IgG1 (hFc)
B5: Antibody No. D6DD3D007 (HU1127-hVH1/hVL2) (antibody, human IgG1, kappa, V domains shown)
VH: QVQLQESGPGLVKPSQTLSLTCTVSGGSISSDSAWNWIRQHPGKGLEWIGYISYSGSTSYNPSLKSRVTISRDTSKNQFSLKLSSVTAADTAVYYCVRGLRFAYWGQGTLVTVSS
VL: DIVLTQSPDSLAVSLGERATINCRASESVDSYVNSFLHWYQQKPGQPPKLLIYRASNLQSGVPDRFSGSGSRTDFTLTISSLQAEDVAVYYCQQSNEDPYTFGQGTKLEIKR
notes: Humanized IgG1 (hFc)
B6: Antibody No. D6DD3D009 (HU1127-hVH3/hVL2) (antibody, human IgG1, kappa)
heavy: not shown
light: B2 light
notes: Humanized IgG1 (hFc)
B7: Antibody No. D6DD3D013 (HU1127-hVH2/hVL3) (antibody, human IgG1, kappa)
heavy: not shown
light: DIQLTQSPSSLSASVGDRVTITCRASESVDSYVNSFLHWYQQKPGKAPKLLIYRASNLQSGVPSRFSGSGSRTDFTLTISSLQPEDVATYYCQQSNEDPYTFGQGTKLEIKRTVAAPSVFIFPPSDEQLKSGTASVVCLLNNFYPREAKVQWKVDNALQSGNSQESVTEQDSKDSTYSLSSTLTLSKADYEKHKVYACEVTHQGLSSPVTKSFNRGEC
notes: Humanized IgG1 (hFc)
B8: Antibody No. D6DD3D015 (HU1127-hVH4/hVL3) (antibody, human IgG1, kappa)
heavy: not shown
light: B7 light
notes: Humanized IgG1 (hFc)
B9: Antibody No. D6DD3D014 (HU1127-hVH3/hVL3) (antibody, human IgG1, kappa)
heavy: not shown
light: B7 light
notes: Humanized IgG1 (hFc); Parent of the PTM-site-removed antibodies MPDDAD001-005
B10: Antibody No. D6DD3D016 (HU1127-hVH5/hVL3) (antibody, human IgG1, kappa)
heavy: not shown
light: B7 light
notes: Humanized IgG1 (hFc)
B11: Antibody No. D6DD3D012 (HU1127-hVH1/hVL3) (antibody, human IgG1, kappa, V domains shown)
VH: B5 VH
VL: DIQLTQSPSSLSASVGDRVTITCRASESVDSYVNSFLHWYQQKPGKAPKLLIYRASNLQSGVPSRFSGSGSRTDFTLTISSLQPEDVATYYCQQSNEDPYTFGQGTKLEIKR
notes: Humanized IgG1 (hFc)
B12: Antibody No. D6DD3D003 (HU1127-hVH2/hVL1) (antibody, human IgG1, kappa)
heavy: not shown
light: EIVLTQSPATLSLSPGERATLSCRASESVDSYVNSFLHWYQQKPGQAPRLLIYRASNLQSGIPARFSGSGSRTDFTLTISSLEPEDVAVYYCQQSNEDPYTFGQGTKLEIKRTVAAPSVFIFPPSDEQLKSGTASVVCLLNNFYPREAKVQWKVDNALQSGNSQESVTEQDSKDSTYSLSSTLTLSKADYEKHKVYACEVTHQGLSSPVTKSFNRGEC
notes: Humanized IgG1 (hFc)
B13: Antibody No. D6DD3D002 (HU1127-hVH1/hVL1) (antibody, human IgG1, kappa, V domains shown)
VH: B5 VH
VL: EIVLTQSPATLSLSPGERATLSCRASESVDSYVNSFLHWYQQKPGQAPRLLIYRASNLQSGIPARFSGSGSRTDFTLTISSLEPEDVAVYYCQQSNEDPYTFGQGTKLEIKR
notes: Humanized IgG1 (hFc)
B14: Antibody No. D6DD3D004 (HU1127-hVH3/hVL1) (antibody, human IgG1, kappa)
heavy: not shown
light: B12 light
notes: Humanized IgG1 (hFc)
B15: Antibody No. D6DD3D005 (HU1127-hVH4/hVL1) (antibody, human IgG1, kappa)
heavy: not shown
light: B12 light
notes: Humanized IgG1 (hFc)
B16: Antibody No. D6DD3D006 (HU1127-hVH5/hVL1) (antibody, human IgG1, kappa)
heavy: not shown
light: B12 light
notes: Humanized IgG1 (hFc)
B17: Antibody No. MPDDAD001 (HU1127-hVH3/hVL3-1) (antibody, IgG1, V domains shown)
VH: B5 VH with V2L, Q16E, H41P
VL: DIQLTQSPSSLSASVGDRVTITCRASESVDSYVDSFLHWYQQKPGKAPKLLIYRASNLQSGVPSRFSGSGSRTDFTLTISSLQPEDVATYYCQQSNEDPYTFGQGTKLEIK
notes: D6DD3D014 with the light chain PTM site NS (VL amino acids 34, 35) changed to DS; Tested as a recombinant antibody with hFc tag, 144 kDa
B18: Antibody No. MPDDAD003 (HU1127-hVH3/hVL3-3) (antibody, V domains shown)
VH: B5 VH with V2L, Q16E, H41P
VL: B17 VL with D34T
notes: D6DD3D014 with the light chain PTM site NS (VL amino acids 34, 35) changed to TS; Tested as a recombinant antibody with hFc tag, 144 kDa
B19: Antibody No. MPDDAD002 (HU1127-hVH3/hVL3-2) (antibody, V domains shown)
VH: B5 VH with V2L, Q16E, H41P
VL: B17 VL with D34S
notes: D6DD3D014 with the light chain PTM site NS (VL amino acids 34, 35) changed to SS; Tested as a recombinant antibody with hFc tag, 144 kDa
B20: Antibody No. MPDDAD005 (HU1127-hVH3/hVL3-5) (antibody, V domains shown)
VH: B5 VH with V2L, Q16E, H41P
VL: B17 VL with D34Q
notes: D6DD3D014 with the light chain PTM site NS (VL amino acids 34, 35) changed to QS; Tested as a recombinant antibody with hFc tag, 144 kDa
B21: Antibody No. MPDDAD004 (HU1127-hVH3/hVL3-4) (antibody, V domains shown)
VH: B5 VH with V2L, Q16E, H41P
VL: B17 VL with D34N, S35A
notes: D6DD3D014 with the light chain PTM site NS (VL amino acids 34, 35) changed to NA; Tested as a recombinant antibody with hFc tag, 144 kDa

What follows are binders tested against T1, Recombinant Human CD14/His Protein … (assay: SPR (Biacore 8K), antibody captured on Protein A chip, CD14-His analyte 0.78125-25 nM, 1:1 binding).
Procedure: The Biacore 8K platform was used to test the kinetic and affinity properties of the antibody. The operation was carried out according to the system instructions and indications.
15 humanized antibodies (numbered D6DD3D002-D6DD3D0016) and 1 mouse antibody (number D6DD3D001) were tested. […] The capture concentration was 1 μg/mL. In Table 8-3, the change factor is the ratio of the equilibrium dissociation constant KD of the humanized to mouse antibody, and reflects the change in affinity after humanization.
For B1, the “Change Factor (KD relative to mouse antibody D6DD3D001)” value was 1, the Kd was 0.485 nM and the koff was 0.000858 s⁻¹. The kon was 1.77e+06 M⁻¹ s⁻¹.
For B2, the “Change Factor (KD relative to mouse antibody D6DD3D001)” value was 3.24, the Kd was 1.57 nM and the koff was 0.00329 s⁻¹. It also gave a kon of 2.09e+06 M⁻¹ s⁻¹.
B3 was tested, and the “Change Factor (KD relative to mouse antibody D6DD3D001)” value was 1.14, the Kd was 0.555 nM and the koff was 0.00105 s⁻¹. For the same binder, the kon was 1.9e+06 M⁻¹ s⁻¹.
B4 was tested, and the “Change Factor (KD relative to mouse antibody D6DD3D001)” value was 1.32, the Kd was 0.639 nM and the koff was 0.00109 s⁻¹. It also gave a kon of 1.71e+06 M⁻¹ s⁻¹.
For B5, the “Change Factor (KD relative to mouse antibody D6DD3D001)” value was 3.34, the Kd was 1.62 nM and the koff was 0.00342 s⁻¹. It also gave a kon of 2.11e+06 M⁻¹ s⁻¹.
In the case of B6, the “Change Factor (KD relative to mouse antibody D6DD3D001)” value is reported as 3.9, the Kd is reported as 1.89 nM and the koff is reported as 0.00379 s⁻¹. The kon was 2.01e+06 M⁻¹ s⁻¹.
With B7 the “Change Factor (KD relative to mouse antibody D6DD3D001)” value was 3.32, the Kd was 1.61 nM and the koff was 0.00282 s⁻¹. For the same binder, the kon was 1.76e+06 M⁻¹ s⁻¹.
For B8, the “Change Factor (KD relative to mouse antibody D6DD3D001)” value was 1.1, the Kd was 0.532 nM and the koff was 0.000843 s⁻¹. The kon was 1.59e+06 M⁻¹ s⁻¹.
B9 was tested, and the “Change Factor (KD relative to mouse antibody D6DD3D001)” value was 3.71, the Kd was 1.8 nM and the koff was 0.00318 s⁻¹. It also gave a kon of 1.77e+06 M⁻¹ s⁻¹.
For B10, the “Change Factor (KD relative to mouse antibody D6DD3D001)” value was 1.39, the Kd was 0.672 nM and the koff was 0.000904 s⁻¹. It also gave a kon of 1.35e+06 M⁻¹ s⁻¹.
With B11 the “Change Factor (KD relative to mouse antibody D6DD3D001)” value was 3.69, the Kd was 1.79 nM and the koff was 0.00293 s⁻¹. It also gave a kon of 1.64e+06 M⁻¹ s⁻¹.
B12 was tested, and the “Change Factor (KD relative to mouse antibody D6DD3D001)” value was 3.34, the Kd was 1.62 nM and the koff was 0.00295 s⁻¹. The kon was 1.82e+06 M⁻¹ s⁻¹.
In the case of B13, the “Change Factor (KD relative to mouse antibody D6DD3D001)” value is reported as 3.57, the Kd is reported as 1.73 nM and the koff is reported as 0.00292 s⁻¹. The kon was 1.69e+06 M⁻¹ s⁻¹.
B14 was tested, and the “Change Factor (KD relative to mouse antibody D6DD3D001)” value was 4.1, the Kd was 1.99 nM and the koff was 0.00326 s⁻¹. The kon was 1.64e+06 M⁻¹ s⁻¹.
B15 was tested, and the “Change Factor (KD relative to mouse antibody D6DD3D001)” value was 1.09, the Kd was 0.529 nM and the koff was 0.000798 s⁻¹. It also gave a kon of 1.51e+06 M⁻¹ s⁻¹.
With B16 the “Change Factor (KD relative to mouse antibody D6DD3D001)” value was 1.24, the Kd was 0.602 nM and the koff was 0.000862 s⁻¹. The kon was 1.43e+06 M⁻¹ s⁻¹.

What follows are binders tested against T1, Recombinant Human CD14/His Protein … (assay: SPR (Biacore 8K), antibody captured (1 ug/mL) on Protein A chip, CD14-His analyte 0.1953125-25 nM, 1:1 binding).
Procedure: The Biacore 8K platform was used to test the kinetic and affinity properties of the antibody, operating according to system instructions and indications.
Results of Affinity Detection. The affinity of the six antibodies was measured at saturation concentration. […] Change factor is described above.
With B17 the “Change Factor (KD relative to mouse antibody D6DD3D001)” value was 8.66, the Kd was 7.48 nM and the koff was 0.00633 s⁻¹. For the same binder, the kon was 847000 M⁻¹ s⁻¹.
B18 was tested, and the “Change Factor (KD relative to mouse antibody D6DD3D001)” value was 2.34, the Kd was 2.02 nM and the koff was 0.0026 s⁻¹. For the same binder, the kon was 1.29e+06 M⁻¹ s⁻¹.
With B19 the “Change Factor (KD relative to mouse antibody D6DD3D001)” value was 3.24, the Kd was 2.8 nM and the koff was 0.00362 s⁻¹. For the same binder, the kon was 1.29e+06 M⁻¹ s⁻¹.
In the case of B20, the “Change Factor (KD relative to mouse antibody D6DD3D001)” value is reported as 5.65, the Kd is reported as 4.88 nM and the koff is reported as 0.00544 s⁻¹. The kon was 1.11e+06 M⁻¹ s⁻¹.
With B21 the “Change Factor (KD relative to mouse antibody D6DD3D001)” value was 6.86, the Kd was 5.93 nM and the koff was 0.0046 s⁻¹. For the same binder, the kon was 775000 M⁻¹ s⁻¹.
B1 was tested, and the “Change Factor (KD relative to mouse antibody D6DD3D001)” value was 1, the Kd was 0.864 nM and the koff was 0.00108 s⁻¹. The kon was 1.25e+06 M⁻¹ s⁻¹.
